{"source": "paper PMC2606091", "about": "(Cell, 2008)", "molecules": {"B1": {"name": "Hsp33 oxidised and activated with a 10-fold molar excess of HOCl (Hsp33_(HOCl)) (natural protein)", "chain": "MPQHDQLHRYLFENFAVRGELVTVSETLQQILENHDYPQPVKNVLAELLVATSLLTATLKFDGDITVQLQGDGPMNLAVINGNNNQQMRGVARVQGEIPENADLKTLVGNGYVVITITPSEGERYQGVVGLEGDTLAACLEDYFMRSEQLPTRLFIRTGDVDGKPAAGGMLLQVMPAQNAQQDDFDHLATLTETIKTEELLTLPANEVLWRLYHEEEVTVYDPQDVEFKCTCSRERCADALKTLPDEEVDSILAEDGEIDMHCDYCGNHYLFNAMDIAEIRNNASPADPQVH", "modifications": "two intramolecular disulfide bonds (Cys232-Cys234; Cys265/Cys268 fully oxidised) after HOCl treatment"}}, "key": {"[1]": {"molecular_target": "Hsp33 (Escherichia coli) (UniProt P0A6Y5)", "details": "cited from earlier work"}, "[2]": {"molecular_target": "the molecule itself", "experiment": "AUC"}}}
{"molecule": "Hsp33 (from UniProt P0A6Y5)", "values": [{"measurement": "Kd", "setting": "[1]", "result": 590, "unit": "nM"}]}
{"molecule": "B1", "values": [{"measurement": "Kd", "setting": "[2]", "result": 570, "unit": "nM"}, {"measurement": "stoichiometry N", "setting": "[2]", "result": 2}]}
